Laboratory results: patent US20250283164

Tests used:
[1] = tested on: GFP; experiment: FP; details: negative control, little affinity
[2] = tested on: BamHI; experiment: FP; details: negative control, little affinity

**Q.** For random-sequence RNA, which Kd [1] is on record?
**A.** > 4 µM

**Q.** And the Kd [2]?
**A.** > 4 µM
